Source: paper PMC8072677

Biological target: CCR7-EGFP (human CCR7 fused to EGFP) (human) (UniProt P32248)
Sequence of UniProt P32248 (P32248 25-378): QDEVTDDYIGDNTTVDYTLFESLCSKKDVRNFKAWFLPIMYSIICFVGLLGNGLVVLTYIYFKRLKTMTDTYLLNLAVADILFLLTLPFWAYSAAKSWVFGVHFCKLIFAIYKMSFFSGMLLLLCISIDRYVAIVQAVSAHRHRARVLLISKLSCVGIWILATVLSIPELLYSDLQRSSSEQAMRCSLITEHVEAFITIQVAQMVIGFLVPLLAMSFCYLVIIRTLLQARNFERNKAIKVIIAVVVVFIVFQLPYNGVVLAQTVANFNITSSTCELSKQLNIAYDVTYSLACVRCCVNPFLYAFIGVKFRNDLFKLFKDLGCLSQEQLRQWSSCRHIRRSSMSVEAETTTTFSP

Question: For “CCL19 (recombinant untagged, native mature human CCL19) (from UniProt Q99731 22-98) (ligand)”, which Transwell migration of 300-19 pre-B cells stably expressing CCR7 towards graded concentrations of chemokine, 3 h; concentration of maximal migration is on record?
Answer: 50 nM
